What follows are substances tested against soybean's RPS5 homolog (soybean) (assay: cell-based or functional assay).

Substance	resistance to the three soy rust strains in transgenic soybean, compared to control event G40
PBS1-R17 (modified Arabidopsis thaliana PBS1 with cleavage site R17, QVFEFL) (from UniProt Q9FE20 1-456)	> 85 % efficacy
PBS1-R19 (modified Arabidopsis thaliana PBS1 with cleavage site R19, QMIFLR) (from UniProt Q9FE20 1-456)	> 85 % efficacy
PBS1-R20 (modified Arabidopsis thaliana PBS1 with cleavage site R20, IFLWSA) (from UniProt Q9FE20 1-456)	> 85 % efficacy

From patent US20240060082A1
